Our source for the binding values is US9339535.

For the data set, the target named is PapMV coat protein CPΔN5 (disks) (Papaya mosaic virus) (UniProt P16596). Put plainly: EMSA. As to conditions: shift with 500 ng (22 pmol as printed) protein in 10 µl, 165 fmol RNA; cooperative; weak affinity; room temperature 60 min. For orientation: In EMSA bound probe runs differently from free probe, usually more slowly.

Turning to PapMV 5' non-coding 80 nt RNA probe, the binding is 500 ng.
